Substitutions are numbered along the chain they refer to.
Experiments:
Assay in all cases: ELISA-like plate assay, captured BMP-7 from conditioned media, receptor-Fc detection
[1] = target: T1, ActRIIa receptor-Fc fusion (UniProt P27037 20-134, limits assumed)
T1 construct: BMP receptor-Fc fusion used at 5 ug/mL

[2] = target: T2, BMPRIb receptor-Fc fusion (UniProt O00238 14-126)
T2 construct: BMP receptor-Fc fusion used at 5 ug/mL; also called ALK-6
T2 sequence (looked up): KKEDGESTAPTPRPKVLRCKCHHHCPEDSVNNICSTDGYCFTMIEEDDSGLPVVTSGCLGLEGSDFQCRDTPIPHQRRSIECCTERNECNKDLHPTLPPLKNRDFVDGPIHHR

[3] = target: T3, BMPRII receptor-Fc fusion (UniProt Q13873 27-151, limits assumed)
T3 construct: BMP receptor-Fc fusion used at 5 ug/mL
T3 sequence (looked up): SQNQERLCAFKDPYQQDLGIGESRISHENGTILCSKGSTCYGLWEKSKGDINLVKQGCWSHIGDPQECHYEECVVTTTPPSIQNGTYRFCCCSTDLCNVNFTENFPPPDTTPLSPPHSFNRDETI

[4] = target: T4, BMPRIa receptor-Fc fusion (UniProt P36894 24-152, limits assumed)
T4 construct: also called ALK-3
T4 sequence (P36894 24-152 limits assumed): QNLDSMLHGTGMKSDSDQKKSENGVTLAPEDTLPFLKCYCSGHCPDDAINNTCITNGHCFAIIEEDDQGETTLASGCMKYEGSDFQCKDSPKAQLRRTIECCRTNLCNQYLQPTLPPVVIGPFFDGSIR

T1 sequence (P27037 20-134 limits assumed): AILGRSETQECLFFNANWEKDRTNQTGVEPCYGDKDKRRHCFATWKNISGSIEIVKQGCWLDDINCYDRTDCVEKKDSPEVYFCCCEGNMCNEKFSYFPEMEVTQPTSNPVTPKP

B1: BMP-7 variant E60H (ligand)
chain: STGGKQRSQNRSKTPKNQEALRMASVAENSSSDQRQACKKHELYVSFRDLGWQDWIIAPHGYAAYYCEGECAFPLNSYMNATNHAIVQTLVHFINPETVPKPCCAPTQLNAISVLYFDDSSNVILKKYRNMVVRACGCH
notes: In conditioned media; numbering on mature BMP-7
ActRIIa binding (relative to wild type = 1.0) [1]: 0.86 relative to wild type
BMPRIb binding (relative to wild type = 1.0) [2]: 0.42 relative to wild type
BMPRII binding (relative to wild type = 1.0) [3]: 1.25 relative to wild type
BMPRIa binding (relative to wild type = 1.0) [4]: 0.34 relative to wild type

B2: BMP-7 variant L115A (ligand)
chain: B1 chain with H60E, L115A
notes: as for B1
BMPRIb binding (relative to wild type = 1.0) [2]: 0.17 relative to wild type

B3: BMP-7 variant S77H (ligand)
chain: B1 chain with H60E, S77H
notes: as for B1
ActRIIa binding (relative to wild type = 1.0) [1]: 0.42 relative to wild type
BMPRIb binding (relative to wild type = 1.0) [2]: 0.3 relative to wild type
BMPRIa binding (relative to wild type = 1.0) [4]: 0.29 relative to wild type

B4: BMP-7 variant F73N (ligand)
chain: B1 chain with H60E, F73N
notes: as for B1
ActRIIa binding (relative to wild type = 1.0) [1]: 0.89 relative to wild type
BMPRIb binding (relative to wild type = 1.0) [2]: 0.95 relative to wild type
BMPRII binding (relative to wild type = 1.0) [3]: 0.85 relative to wild type
BMPRIa binding (relative to wild type = 1.0) [4]: 0.51 relative to wild type

B5: BMP-7 variant F117S (ligand)
chain: B1 chain with H60E, F117S
notes: as for B1
ActRIIa binding (relative to wild type = 1.0) [1]: 0.11 relative to wild type
BMPRIa binding (relative to wild type = 1.0) [4]: 0.15 relative to wild type

B6: BMP-7 variant W52P (ligand)
chain: B1 chain with W52P, H60E
notes: as for B1
BMPRIb binding (relative to wild type = 1.0) [2]: 0.14 relative to wild type

B7: BMP-7 variant L90R (ligand)
chain: B1 chain with H60E, L90R
notes: as for B1
ActRIIa binding (relative to wild type = 1.0) [1]: 0.47 relative to wild type

B8: BMP-7 variant F93A (ligand)
chain: B1 chain with H60E, F93A
notes: as for B1
ActRIIa binding (relative to wild type = 1.0) [1]: 0.11 relative to wild type
BMPRIb binding (relative to wild type = 1.0) [2]: 0.24 relative to wild type
BMPRIa binding (relative to wild type = 1.0) [4]: 0.1 relative to wild type

B9: BMP-7 variant R48E (ligand)
chain: B1 chain with R48E, H60E
notes: as for B1
ActRIIa binding (relative to wild type = 1.0) [1]: 0.34 relative to wild type
BMPRIa binding (relative to wild type = 1.0) [4]: 0.45 relative to wild type

B10: BMP-7 variant F73K (ligand)
chain: B1 chain with H60E, F73K
notes: as for B1
ActRIIa binding (relative to wild type = 1.0) [1]: 0.61 relative to wild type
BMPRIb binding (relative to wild type = 1.0) [2]: 1.14 relative to wild type
BMPRII binding (relative to wild type = 1.0) [3]: 0.38 relative to wild type
BMPRIa binding (relative to wild type = 1.0) [4]: 0.69 relative to wild type

B11: BMP-7 variant W55A (ligand)
chain: B1 chain with W55A, H60E
notes: as for B1
BMPRIb binding (relative to wild type = 1.0) [2]: 0.23 relative to wild type
BMPRIa binding (relative to wild type = 1.0) [4]: 0.1 relative to wild type

B12: BMP-7 variant F73D (ligand)
chain: B1 chain with H60E, F73D
notes: as for B1
ActRIIa binding (relative to wild type = 1.0) [1]: 2.5 relative to wild type
BMPRIb binding (relative to wild type = 1.0) [2]: 0.64 relative to wild type
BMPRII binding (relative to wild type = 1.0) [3]: 3.05 relative to wild type
BMPRIa binding (relative to wild type = 1.0) [4]: 0.33 relative to wild type

B13: BMP-7 variant F73E (ligand)
chain: B1 chain with H60E, F73E
notes: as for B1
ActRIIa binding (relative to wild type = 1.0) [1]: 1.87 relative to wild type
BMPRIb binding (relative to wild type = 1.0) [2]: 1.23 relative to wild type
BMPRII binding (relative to wild type = 1.0) [3]: 1.77 relative to wild type
BMPRIa binding (relative to wild type = 1.0) [4]: 0.55 relative to wild type

B14: BMP-7 variant L21E (ligand)
chain: B1 chain with L21E, H60E
notes: as for B1
ActRIIa binding (relative to wild type = 1.0) [1]: 0.25 relative to wild type
BMPRIb binding (relative to wild type = 1.0) [2]: 0.16 relative to wild type
BMPRIa binding (relative to wild type = 1.0) [4]: 0.12 relative to wild type

B15: BMP-7 variant E60P (ligand)
chain: B1 chain with H60P
notes: as for B1
ActRIIa binding (relative to wild type = 1.0) [1]: 0.94 relative to wild type
BMPRIb binding (relative to wild type = 1.0) [2]: 0.53 relative to wild type
BMPRII binding (relative to wild type = 1.0) [3]: 1.01 relative to wild type
BMPRIa binding (relative to wild type = 1.0) [4]: 0.47 relative to wild type
